Earlier results in publication PMC2669593.

Target: CaVβ1b (UniProt Q02641)
Chain of UniProt Q02641 (Q02641 whole entry): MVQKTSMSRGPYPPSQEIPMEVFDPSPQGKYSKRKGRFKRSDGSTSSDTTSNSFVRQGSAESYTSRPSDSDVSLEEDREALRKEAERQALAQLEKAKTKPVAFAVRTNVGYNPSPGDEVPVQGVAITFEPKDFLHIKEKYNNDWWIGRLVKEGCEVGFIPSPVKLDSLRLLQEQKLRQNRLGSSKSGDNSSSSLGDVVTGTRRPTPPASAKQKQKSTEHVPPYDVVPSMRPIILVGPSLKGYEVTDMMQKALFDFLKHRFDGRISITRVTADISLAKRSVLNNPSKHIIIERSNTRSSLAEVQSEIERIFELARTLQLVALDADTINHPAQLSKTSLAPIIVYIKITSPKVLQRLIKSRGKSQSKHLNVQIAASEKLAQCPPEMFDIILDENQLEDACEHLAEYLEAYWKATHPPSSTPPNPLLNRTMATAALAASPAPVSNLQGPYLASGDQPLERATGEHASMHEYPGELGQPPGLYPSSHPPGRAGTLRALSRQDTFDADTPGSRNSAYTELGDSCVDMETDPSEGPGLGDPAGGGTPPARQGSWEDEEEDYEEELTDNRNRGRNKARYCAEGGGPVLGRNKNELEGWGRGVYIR

CaV2.2 I-II linker (from UniProt Q00975)
Kd: 10 nM
